Measurements published in patent publication US10513547B2, “Peptides and combination of peptides and scaffolds thereof for use in immunotherapy against colorectal carcinoma (CRC) and other cancers” (Immatics Biotechnologies GmbH, priority 2015, dated 2019).

Target: HLA-A*02:01 (Homo sapiens, UniProt P04439, D140Y/D185E/D98H/E176V/E277Q/G131W/G231S/I119V/I121R/I166T/I218V/L300P/L318F/N151K/N90K/P208A/P217A/Q86G/Q94H/R138H/R169H/T345S)
Test: MHC binding assay (UV-ligand exchange, beta2m ELISA, peptide exchange yield)
Settings: binding to HLA-A*02:01
Excerpt: Candidate peptides for T cell based therapies according to the present invention were further tested for their MHC binding capacity (affinity). The individual peptide-MHC complexes were produced by UV-ligand exchange, where a UV-sensitive peptide is cleaved upon UV-irradiation, and exchanged with the peptide of interest as analyzed. Only peptide candidates that can effectively bind and stabilize the peptide-receptive MHC molecules prevent dissociation of the MHC complexes. To determine the yield of the exchange reaction, an ELISA was performed based on the detection of the light chain ([…]) of stabilized MHC complexes. The assay was performed as generally described in Rodenko et al. (Rodenko et al., 2006).
96 well MAXISorp plates (NUNC) were coated over night with 2 ug/ml streptavidin in PBS at room temperature, washed 4× and blocked for 1 h at 37° C. in 2% BSA containing blocking buffer. Refolded HLA-A*02:01/MLA-001 monomers served as standards, covering the range of 15-500 ng/ml. Peptide-MHC monomers of the UV-exchange reaction were diluted 100 fold in blocking buffer. Samples were incubated for 1 h at 37° C., washed four times, incubated with 2 ug/ml HRP conjugated anti-β2m for 1 h at 37° C., washed again and detected with TMB solution that is stopped with […]. Absorption was measured at 450 nm. Candidate peptides that show a high exchange yield (preferably higher than 50%, most preferred higher than 75%) are generally preferred for a generation and production of antibodies or fragments thereof, and/or T cell receptors or fragments thereof, as they show sufficient avidity to the MHC molecules and prevent dissociation of the MHC complexes.

Substance | Peptide exchange (MHC class I binding score, peptide exchange yield)
138 (KQFEGTVEI; listed as Homo sapiens) [compound 138] | “+++” (≥50 = +++)
139 (VLLNEILEQV; listed as Homo sapiens) [compound 139] | “+++” (≥50 = +++)
140 (LLNEILEQV; listed as Homo sapiens) [compound 140] | “+++” (≥50 = +++)
143 (KLSDVWKEL; listed as Homo sapiens) [compound 143] | “+++” (≥50 = +++)
144 (LLNDRIWLA; listed as Homo sapiens) [compound 144] | “+++” (≥50 = +++)
145 (LLLEVVKQV; listed as Homo sapiens) [compound 145] | “+++” (≥50 = +++)
146 (ALSDETWGL; listed as Homo sapiens) [compound 146] | “++” (≥20% = ++)
147 (TLTELRAFL; listed as Homo sapiens) [compound 147] | “++++” (≥75% = ++++)
148 (RLLENMTEVV; listed as Homo sapiens) [compound 148] | “+++” (≥50 = +++)
149 (YQFDKVGILTL; listed as Homo sapiens) [compound 149] | “+++” (≥50 = +++)
151 (SAQGSDVSLTACKV; listed as Homo sapiens) [compound 151] | “+++” (≥50 = +++)
152 (KLLAVIHEL; listed as Homo sapiens) [compound 152] | “++” (≥20% = ++)

Second part, the substance after the results:

Peptide exchange (MHC class I binding score, peptide exchange yield) | Substance
“+++” (≥50 = +++) | 153 (ILFSEDSTKLFV; listed as Homo sapiens) [compound 153]
“+++” (≥50 = +++) | 154 (KLPSETIFVGC; listed as Homo sapiens) [compound 154]
“+++” (≥50 = +++) | 155 (RLLGEEVVRV; listed as Homo sapiens) [compound 155]
“++++” (≥75% = ++++) | 156 (SLMMTIINL; listed as Homo sapiens) [compound 156]
“+++” (≥50 = +++) | 157 (SLIERDLKL; listed as Homo sapiens) [compound 157]
“+++” (≥50 = +++) | 158 (GLLDPSVFHV; listed as Homo sapiens) [compound 158]
“++” (≥20% = ++) | 159 (VLVDDDGIKVV; listed as Homo sapiens) [compound 159]
“+++” (≥50 = +++) | 160 (KLLEFDQLQL; listed as Homo sapiens) [compound 160]
“+++” (≥50 = +++) | 161 (FLKNELDNV; listed as Homo sapiens) [compound 161]
“+++” (≥50 = +++) | 162 (KLMDYIDEL; listed as Homo sapiens) [compound 162]
“+++” (≥50 = +++) | 163 (RLLHEVQEL; listed as Homo sapiens) [compound 163]
“++++” (≥75% = ++++) | 164 (KMLDEILLQL; listed as Homo sapiens) [compound 164]
“++++” (≥75% = ++++) | 165 (RLLDFPEAMVL; listed as Homo sapiens) [compound 165]
